Test: melting temperature; UV melt of duplexes

Substance	Tm (sodium 0.07 M, strand 2 µM)	Tm (sodium 0.12 M, strand 2 µM)	Tm (sodium 0.22 M, strand 2 µM)	Tm (sodium 0.62 M, strand 2 µM)	Tm (sodium 1.02 M, strand 2 µM)	Tm (sodium 0.1 M, strand 4 µM)	Tm (sodium 1 M, strand 3 µM)	Tm (sodium 0.1 M, strand 1 µM)	Tm (sodium 1 M, strand 0.0001 M)
GATATAGCAAAATTCTAAGTTAATA+TATTAACTTAGAATTTTGCTATATC (((((((((((((((((((((((((+)))))))))))))))))))))))))	49.1 °C	53.5 °C	57.7 °C	63.3 °C	66.1 °C	–	–	–	–
GCCAACTCCGTCGCCGTTCGTGCGC+GCGCACGAACGGCGACGGAGTTGGC (((((((((((((((((((((((((+)))))))))))))))))))))))))	73.5 °C	76.5 °C	80.6 °C	83.2 °C	84.6 °C	–	–	–	–
GCCGAGGTCCATGTCGTACGC+GCGTACGACATGGACCTCGGC (((((((((((((((((((((+)))))))))))))))))))))	–	–	–	–	–	69.5 °C	–	–	–
GCGAGCGACAGGTTACTTGGCTGAT+ATCAGCCAAGTAACCTGTCGCTCGC (((((((((((((((((((((((((+)))))))))))))))))))))))))	67 °C	70.8 °C	74.7 °C	78.6 °C	80.1 °C	–	–	–	–
GCTAAAAAGAGAGAGAGATCG+CGATCTCTCTCTCTTTTTAGC (((((((((((((((((((((+)))))))))))))))))))))	–	–	–	–	–	–	69 °C	–	–
GTAGAATTCTTTTCCTTCTAGATCG+CGATCTAGAAGGAAAAGAATTCTAC (((((((((((((((((((((((((+)))))))))))))))))))))))))	–	–	–	–	–	–	–	62 °C	–
GTATAACCGGTTATAC+GTATAACCGGTTATAC ((((((((((((((((+))))))))))))))))	–	–	–	–	–	–	–	–	65.9 °C
GTCCACGCCCGGTGCGACGG+CCGTCGCACCGGGCGTGGAC ((((((((((((((((((((+))))))))))))))))))))	70.9 °C	73.9 °C	77.3 °C	79.8 °C	81.1 °C	–	–	–	–
GTTATTCCGCAGTCCGATGGCAGCAGGCTC+GAGCCTGCTGCCATCGGACTGCGGAATAAC ((((((((((((((((((((((((((((((+))))))))))))))))))))))))))))))	70.6 °C	74.9 °C	78.1 °C	82.4 °C	84.1 °C	–	–	–	–
GTTCTATACTCTTGAAGTTGATTAC+GTAATCAACTTCAAGAGTATAGAAC (((((((((((((((((((((((((+)))))))))))))))))))))))))	52.7 °C	56.1 °C	60.6 °C	66.1 °C	67.7 °C	–	–	–	–
TATTGAGAACAAGTGTCCGATTAGCAGAAA+TTTCTGCTAATCGGACACTTGTTCTCAATA ((((((((((((((((((((((((((((((+))))))))))))))))))))))))))))))	61.3 °C	65.4 °C	69.6 °C	74.8 °C	76.4 °C	–	–	–	–
TCGGAGAAATCACTGAGCTGCCTGAGAAGA+TCTTCTCAGGCAGCTCAGTGATTTCTCCGA ((((((((((((((((((((((((((((((+))))))))))))))))))))))))))))))	66.3 °C	70.4 °C	74.1 °C	79 °C	80.9 °C	–	–	–	–
TGATTCTACCTATGTGATTT+AAATCACATAGGTAGAATCA ((((((((((((((((((((+))))))))))))))))))))	49.1 °C	53.5 °C	57.4 °C	62.3 °C	64.4 °C	–	–	–	–
TTCAAGTTAAACATTCTATC+GATAGAATGTTTAACTTGAA ((((((((((((((((((((+))))))))))))))))))))	45.7 °C	49.5 °C	53.9 °C	59.4 °C	61.5 °C	–	–	–	–
